# Measurements taken from publication PMC12528421.
# B1: Classical STAT3 motif probe (dsDNA)
# DNA 1: GATCCTTCTGGGAATTCCGATCCTTCTGGGAATTCCGATCCTTCTGGGAATTCC
# DNA 2: GGAATTCCCAGAAGGATCGGAATTCCCAGAAGGATCGGAATTCCCAGA
# B2: Pax7 promoter bind site 3 probe (dsDNA)
# DNA 1: AATTCTTCCGGGGATGTCAATTCTTCCGGGGATGTCAATTCTTCCGGGGATGTC
# DNA 2: GACATCCCCGGAAGAATTGACATCCCCGGAAGAATTGACATCCCCGGA
# B3: Myod1 promoter bind site 1 probe (dsDNA)
# DNA 1: ATTGGATTCCTGGCATCCGTTGGATTCCTGGCATCCGTTGGATTCCTGGCATCCG
# DNA 2: CGGATGCCAGGAATCCAACGGATGCCAGGAATCCAACGGATGCCAGGAA
# B4: Myod1 promoter bind site 2 probe (dsDNA)
# DNA 1: ACATTGTTCCTGGATATGACATTGTTCCTGGATATGACATTGTTCCTGGATATGA
# DNA 2: TCATATCCAGGAACAATGTCATATCCAGGAACAATGTCATATCCAGGAA
# B5: Myod1 promoter bind site 3 probe (dsDNA)
# DNA 1: CAGATATTCTCTGAGCCATTCCCAGATGAGATATTCTCTGAGCCATTCCCAGATGG
# DNA 2: CCATCTGGGAATGGCTCAGAGAATATCTCATCTGGGAATGGCTCAGAGAAT
# B6: Pax7 promoter bind site 1 probe (dsDNA)
# DNA 1: ATATGTTTACAGAAAGACATATGTTTACAGAAAGACATATGTTTACAGAAAGACA
# DNA 2: TGTCTTTCTGTAAACATATGTCTTTCTGTAAACATATGTCTTTCTGTAA
# B7: Pax7 promoter bind site 2 probe (dsDNA)
# DNA 1: ATCCCATCCCCGGAAGCCCTCCCATCCCCGGAAGCCCTCCCATCCCCGGAAGCCC
# DNA 2: GGGCTTCCGGGGATGGGAGGGCTTCCGGGGATGGGAGGGCTTCCGGGGA
# Target: GST-STAT3 (human, UniProt P40763 1-770)
# Sequence (P40763 whole entry): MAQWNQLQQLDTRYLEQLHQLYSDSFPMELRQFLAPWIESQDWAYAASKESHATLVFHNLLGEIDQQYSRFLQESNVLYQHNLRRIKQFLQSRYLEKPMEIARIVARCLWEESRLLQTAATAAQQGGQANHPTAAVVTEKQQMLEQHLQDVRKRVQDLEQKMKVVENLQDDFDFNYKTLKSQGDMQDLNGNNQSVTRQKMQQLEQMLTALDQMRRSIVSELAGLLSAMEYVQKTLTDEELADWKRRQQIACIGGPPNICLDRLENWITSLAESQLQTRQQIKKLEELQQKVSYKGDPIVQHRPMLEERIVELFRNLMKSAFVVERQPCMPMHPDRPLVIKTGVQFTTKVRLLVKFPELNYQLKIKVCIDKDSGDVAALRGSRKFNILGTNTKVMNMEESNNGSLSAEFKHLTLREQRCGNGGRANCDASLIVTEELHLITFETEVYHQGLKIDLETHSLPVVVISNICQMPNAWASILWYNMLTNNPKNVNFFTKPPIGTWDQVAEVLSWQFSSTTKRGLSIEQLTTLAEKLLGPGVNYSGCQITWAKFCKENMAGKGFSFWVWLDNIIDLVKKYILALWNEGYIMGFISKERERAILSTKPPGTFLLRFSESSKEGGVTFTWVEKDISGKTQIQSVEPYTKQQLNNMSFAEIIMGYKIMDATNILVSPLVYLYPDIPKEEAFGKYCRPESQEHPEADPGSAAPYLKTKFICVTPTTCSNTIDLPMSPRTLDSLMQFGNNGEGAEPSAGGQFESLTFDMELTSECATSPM
# Assay: EMSA
row,Binder,binding result
1,B1,binds
2,B2,binds
3,B3,binds
4,B4,binds
5,B5,binds
6,B6,binds
7,B7,binds

# Target: T1, Flag-AS160 (human, UniProt O60343 1-1298)
# T1 sequence: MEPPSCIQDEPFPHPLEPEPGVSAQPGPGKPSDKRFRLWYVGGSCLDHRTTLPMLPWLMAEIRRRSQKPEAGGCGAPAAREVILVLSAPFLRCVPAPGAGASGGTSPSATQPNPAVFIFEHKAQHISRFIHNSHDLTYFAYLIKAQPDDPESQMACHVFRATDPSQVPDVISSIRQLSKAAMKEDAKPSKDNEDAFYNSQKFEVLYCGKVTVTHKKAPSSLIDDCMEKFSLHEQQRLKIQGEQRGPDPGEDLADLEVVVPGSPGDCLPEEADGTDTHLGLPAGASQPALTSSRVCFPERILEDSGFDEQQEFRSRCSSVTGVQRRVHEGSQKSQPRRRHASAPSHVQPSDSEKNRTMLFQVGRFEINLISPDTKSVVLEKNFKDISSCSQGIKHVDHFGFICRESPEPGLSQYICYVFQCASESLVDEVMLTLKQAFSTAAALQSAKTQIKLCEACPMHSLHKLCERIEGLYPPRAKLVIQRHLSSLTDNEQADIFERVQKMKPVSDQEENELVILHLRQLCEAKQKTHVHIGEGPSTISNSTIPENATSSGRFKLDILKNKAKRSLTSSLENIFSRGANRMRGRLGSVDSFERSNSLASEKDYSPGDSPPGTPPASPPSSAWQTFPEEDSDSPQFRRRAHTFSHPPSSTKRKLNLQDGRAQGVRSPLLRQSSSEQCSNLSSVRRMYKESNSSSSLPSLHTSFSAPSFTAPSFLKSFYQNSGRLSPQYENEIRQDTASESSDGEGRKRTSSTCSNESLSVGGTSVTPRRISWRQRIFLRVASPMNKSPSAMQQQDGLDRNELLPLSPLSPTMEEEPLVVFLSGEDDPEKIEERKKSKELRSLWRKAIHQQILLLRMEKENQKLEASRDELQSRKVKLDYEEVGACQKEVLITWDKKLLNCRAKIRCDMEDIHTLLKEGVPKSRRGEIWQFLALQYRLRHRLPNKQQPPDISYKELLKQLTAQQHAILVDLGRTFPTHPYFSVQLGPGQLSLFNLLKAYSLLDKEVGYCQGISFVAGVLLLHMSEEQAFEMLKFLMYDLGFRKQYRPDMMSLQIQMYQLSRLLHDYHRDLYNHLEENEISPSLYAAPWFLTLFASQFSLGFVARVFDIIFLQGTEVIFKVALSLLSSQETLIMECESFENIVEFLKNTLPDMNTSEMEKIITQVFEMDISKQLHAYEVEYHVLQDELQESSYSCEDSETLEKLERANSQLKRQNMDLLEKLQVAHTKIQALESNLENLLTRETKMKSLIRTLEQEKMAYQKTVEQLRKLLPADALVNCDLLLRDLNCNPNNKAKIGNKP
# Assay: EMSA
row,Binder,binding result
1,B1,no binding
2,B2,no binding
3,B3,no binding
4,B4,no binding
5,B5,no binding
6,B6,no binding
7,B7,no binding

# Target: T2, GST-STAT3;Flag-AS160 (human;human, UniProt P40763;O60343 1-770;1-1298, |)
# T2 sequence (P40763 whole entry, one chain of several): as the sequence (P40763 whole entry) above
# Assay: EMSA
row,Binder,binding result
1,B2,binds
2,B3,binds
3,B4,binds
4,B5,binds
5,B6,binds
6,B7,binds

# Target: T2, GST-STAT3;Flag-AS160
# Assay: EMSA
# Remark: another data set of the same source
row,Binder,binding signal
1,B1,> 2 fold vs STAT3 alone
